{"source": "paper PMC12170185", "about": "“Dynamic RNA binding and unfolding by nonsense-mediated mRNA decay factor UPF2” (RNA, 2024)", "binders": {"B1": {"name": "UPF3B (residues 41-262) (domain or fragment, UniProt Q9BZI7 41-262, looked up)", "chain": "DRNKEKKEALSKVVIRRLPPTLTKEQLQEHLQPMPEHDYFEFFSNDTSLYPHMYARAYINFKNQEDIILFRDRFDGYVFLDNKGQEYPAIVEFAPFQKAAKKKTKKRDTKVGTIDDDPEYRKFLESYATDNEKMTSTPETLLEEIEAKNRELIAKKTTPLLSFLKNKQRMREEKREERRRREIERKRQREEERRKWKEEEKRKRKDIEKLKKIDRIPERDKL", "notes": "UPF3B residues 41-262: RNA-recognition motif, NOPS-Like domain and the first coiled coil-like domain; source: E. coli, purified as described (Bufton et al. 2022)"}}, "key": {"[1]": {"target": "T1, UPF2 MIF4G domain-3 (residues 761-1054) (UniProt Q9HAU5 761-1054)", "T1 construct": "UPF2, third MIF4G domain, residues 761-1054; Construct from Kadlec et al. 2004; TEV site and His6 tag as said for m1; also called MIF4G-D3; D3; source: E. coli BL21 Rosetta (DE3), purified (Ni-NTA, heparin, SEC)", "T1 sequence (looked up)": "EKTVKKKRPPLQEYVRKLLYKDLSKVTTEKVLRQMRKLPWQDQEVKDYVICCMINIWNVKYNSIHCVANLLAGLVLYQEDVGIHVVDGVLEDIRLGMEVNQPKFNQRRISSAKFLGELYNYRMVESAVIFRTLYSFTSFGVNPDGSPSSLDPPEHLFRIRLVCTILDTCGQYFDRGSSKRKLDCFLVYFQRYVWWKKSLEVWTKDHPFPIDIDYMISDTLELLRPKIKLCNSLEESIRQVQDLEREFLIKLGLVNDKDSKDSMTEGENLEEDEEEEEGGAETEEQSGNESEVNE", "assay": "native gel or EMSA; 250 nM HEX-labelled hp-RNA mixed with the proteins, 1 h on ice; native 4%-20% Tris-glycine gel, 45 min at 150 V, 4°C; HEX label of the RNA detected; RNA diluted in 25 mM HEPES pH 7.45, 100 mM NaCl, 5% glycerol", "conditions": "both partners purified"}, "[2]": {"target": "T2, UPF2L (near full-length UPF2, residues 121-1227) (UniProt Q9HAU5 121-1227)", "T2 construct": "Construct from Neu-Yilik et al. 2017; also called up-frameshift protein 2; source: E. coli BL21 Rosetta (DE3), purified (Ni-NTA, heparin, SEC)", "T2 sequence (looked up)": "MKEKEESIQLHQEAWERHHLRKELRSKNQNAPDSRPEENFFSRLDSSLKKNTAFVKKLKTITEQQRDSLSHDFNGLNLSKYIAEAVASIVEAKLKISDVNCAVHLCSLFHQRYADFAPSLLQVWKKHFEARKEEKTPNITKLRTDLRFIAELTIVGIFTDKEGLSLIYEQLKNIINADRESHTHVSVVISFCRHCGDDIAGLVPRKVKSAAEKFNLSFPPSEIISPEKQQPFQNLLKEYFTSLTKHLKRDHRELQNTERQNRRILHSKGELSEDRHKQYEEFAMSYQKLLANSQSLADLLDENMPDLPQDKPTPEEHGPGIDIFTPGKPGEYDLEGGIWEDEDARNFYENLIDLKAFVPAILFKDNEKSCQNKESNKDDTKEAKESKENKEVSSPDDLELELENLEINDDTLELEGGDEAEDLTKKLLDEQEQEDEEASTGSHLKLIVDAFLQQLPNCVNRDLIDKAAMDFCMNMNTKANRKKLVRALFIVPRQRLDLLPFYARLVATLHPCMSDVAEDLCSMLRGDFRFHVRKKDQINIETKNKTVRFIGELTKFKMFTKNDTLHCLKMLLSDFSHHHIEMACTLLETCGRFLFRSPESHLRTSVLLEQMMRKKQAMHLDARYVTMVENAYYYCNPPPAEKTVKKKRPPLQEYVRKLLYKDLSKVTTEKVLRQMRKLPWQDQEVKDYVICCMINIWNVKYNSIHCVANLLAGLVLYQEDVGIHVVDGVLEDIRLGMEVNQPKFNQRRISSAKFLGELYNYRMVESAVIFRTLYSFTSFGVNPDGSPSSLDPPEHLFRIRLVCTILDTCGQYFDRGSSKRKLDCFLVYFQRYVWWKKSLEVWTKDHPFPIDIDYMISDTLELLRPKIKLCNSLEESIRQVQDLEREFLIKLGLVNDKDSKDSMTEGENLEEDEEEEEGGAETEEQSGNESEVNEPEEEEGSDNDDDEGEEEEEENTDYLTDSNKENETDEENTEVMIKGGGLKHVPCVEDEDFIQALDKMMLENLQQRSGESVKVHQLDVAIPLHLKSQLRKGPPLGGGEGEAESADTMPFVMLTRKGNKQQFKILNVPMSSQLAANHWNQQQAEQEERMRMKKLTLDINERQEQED", "assay": "native gel or EMSA; 250 nM HEX-labelled hp-RNA mixed with the proteins, 1 h on ice; native 4%-20% Tris-glycine gel, 45 min at 150 V, 4°C; HEX label of the RNA detected; RNA diluted in 25 mM HEPES pH 7.45, 100 mM NaCl, 5% glycerol", "conditions": "both partners purified"}}, "data": [{"binder": "B1", "values": [{"measurement": "binding result", "setting": "[1]", "result": "binds"}, {"measurement": "binding result", "setting": "[2]", "result": "binds"}]}]}
